In the supplement of paper PMC10567573:

B1: IQUB (parent)
chain: KIREKEEWIKLDYHRRHNPKTNED
B2: IQUB (parent)
chain: CRNCINLQNEAQKRESFLKYKCLL

Variants of: B1
Assay: protein stability index of a GFP-peptide fusion (GPS, HEK-293T) (PSI 1-6); higher = more stable
Conditions: c terminus: a fixed tail appended
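Also: lentivirally expressed fusions sorted by FACS into six bins by GFP to DsRed ratio, PSI derived from sequencing read proportions per bin multiplied by bin number.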

Protein stability index, by site and new letter:
T21: Q 4.75; G 5.12; H 4.08; P 4.74; E 4.6; S 4.76; C 4.57; M 4.1; I 4.33; V 4.46; L 4.13; D 4.79; N 4.75; K 5.05; R 4.82; Y 4.52; A 5.18; W 3.77; F 4.53
D12: Y 3.62; M 3.7; P 4.41; C 3.93; G 4.51; N 3.92; V 3.65; T 3.79; A 4.07; F 4.01; I 3.28; L 3.79; K 4.54; H 4.41; Q 4.55; R 4.21; S 3.59; E 4.27; W 3.79
L11: C 4.52; G 4.64; P 4.78; F 4.33; T 5.2; I 3.78; K 4.71; Y 4.81; H 4.66; M 4.71; D 4.93; V 4.55; Q 5.37; N 5.15; S 5.23; R 5.29; E 4.32; W 4.13
Y13: S 5.11; E 5.18; G 4.99; W 4.18; L 4.8; H 4.87; M 4.76; R 5.28; Q 5.04; V 4.64; A 4.36; D 5.04; N 5.41; T 4.49; I 3.95; F 4.51; P 4.51; K 5.3; C 4.33
E23: P 4.28; T 4.54; W 5.01; Y 3.77; L 4.17; D 5.01; I 4.13; H 4.18; C 3.91; G 4.44; A 4.52; R 3.72; Q 4.06; F 4.45; S 4.25; M 4.17; N 4.24; V 4.18
P19: W 4.33; L 3.91; G 4.46; C 4.61; H 4.3; I 4.92; E 4.65; Y 4.06; S 4.99; A 4.59; N 5.13; Q 4.68; D 4.77; M 4.71; K 4.95; T 4.49
N18: R 4.31; Y 3.71; E 4.48; L 3.79; I 4.19; K 4.46; G 4.93; C 3.99; H 4.27; D 4.86; F 4; M 4.42; S 4.91; A 4.32; T 4.27; Q 3.97; V 4.32; P 4.89
R16: Q 5.08; D 3.61; I 4.38; P 4.75; C 4.52; Y 4.31; M 4.63; K 3.6; L 3.86; A 4.54; E 5.2; N 4.91; F 3.7; V 3.62; H 4.4; T 4.94; G 4.74; W 4.22; S 5.12
N22: P 4.36; V 4.15; W 2.8; Y 4.01; I 4.01; T 4.6; C 4.85; R 4.03; S 4.72; M 4.29; Q 4.66; D 4.7; A 4.27; G 4.79; F 3.84; K 4.29; H 4.22; L 4.2
D24: C 3.29; Q 4.13; Y 3.65; N 4.32; V 3.21; S 4.27; H 4.04; M 3.88; I 3.83; W 3.02; R 3.89; G 3.72; F 3.27; K 4.42; A 3.91; P 3.66; T 4.16; L 3.53
K20: G 4.84; F 2.51; V 4.72; E 5.2; R 4.66; Y 4.03; N 4.21; T 4.64; Q 4.39; A 4.52; W 3.08; P 5.07; I 4.37; D 4.65; M 4.53; H 4.64; C 4.27; S 4.81
R15: P 4.17; W 4.16; K 4.64; G 4.83; E 4.46; L 4.49; V 4.97; Q 3.98; D 5.33; I 4.29; S 5.22; F 4.23; M 4.3; T 4.76; A 5.05; N 4.39; H 4.36; C 3.89; Y 4.08
H14: K 3.87; L 4.1; S 4.61; W 3.73; F 4.34; D 5.35; N 4.89; V 4.24; T 4.5; E 3.72; P 4.51; G 4.88; I 4.58; A 4.8; Y 4.41; C 4.46; R 4.58; Q 5.02
H17: L 4.67; T 4.57; N 4.16; C 4.16; S 4.83; M 4.21; A 4.71; E 4.11; R 4.51; D 5.08; G 4.97; I 4.5; K 4.23; V 4.87; Y 3.99; Q 5.08; P 5.17; F 4.41

Variants of: B2
Assay: as above
Conditions: c terminus: a fixed tail appended

Protein stability index, by site and new letter:
Y20: K 2.46; T 2.14; S 1.5; H 1.69
R2: A 1.95; Y 1.64
L18: N 2.27; K 2.15; W 1.96; F 2.79; C 2.6
N9: S 1.95; G 2.15; Q 1.49; M 1.39; I 2.01
R14: H 1.83; Y 2.43
K19: E 1.74; C 3.27
I5: L 2.16; V 1.61; Q 1.97; E 2.53
C1: A 2.36; N 2.33; Y 1.86; K 1.9
F17: M 1.58; N 2.22; L 1.77
N6: F 2.2; D 1.47; S 2.37; W 1.9
L7: W 2.57; T 1.67; N 2.26
C22: R 1.3; Y 1.84; G 1.42
A11: V 1.57; S 2.06; T 2.8; N 1.56
K13: H 2.74; F 2.35; M 1.8
Q8: F 1.59; C 2.9
L24: H 2.19; R 1.82; N 1.86
L23: T 1.97; I 2.25; Y 2.05; W 2.21
N3: T 3.29; S 2.59; H 1.99; Y 1.76; F 1.83
K21: R 2.53; G 2.7; C 1.77; W 1.78; H 2.47; S 1.94
C4: E 1.41; I 2.28; Y 2.51; W 1.41
Q12: I 2.58; R 1.96; M 1.5; T 1.71
S16: R 2.62; C 1.53
E10: S 1.9
